Test [1] deals with T1, human ROR2 (human, UniProt Q01974 34-403, limits assumed). Description: SPR. Put shortly: (§1)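 Values are dissociation constants (Kd, nM) for binding to human ROR2, measured by surface plasmon resonance. The monoclonal antibodies tested were humanized anti-human ROR2 antibodies built from murine complementarity-determining regions placed into human acceptor frameworks, with a human IgG1 constant region. Antigen format, concentrations, temperature, buffer and replicates are not given.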
T1 sequence (Q01974 34-403 limits assumed): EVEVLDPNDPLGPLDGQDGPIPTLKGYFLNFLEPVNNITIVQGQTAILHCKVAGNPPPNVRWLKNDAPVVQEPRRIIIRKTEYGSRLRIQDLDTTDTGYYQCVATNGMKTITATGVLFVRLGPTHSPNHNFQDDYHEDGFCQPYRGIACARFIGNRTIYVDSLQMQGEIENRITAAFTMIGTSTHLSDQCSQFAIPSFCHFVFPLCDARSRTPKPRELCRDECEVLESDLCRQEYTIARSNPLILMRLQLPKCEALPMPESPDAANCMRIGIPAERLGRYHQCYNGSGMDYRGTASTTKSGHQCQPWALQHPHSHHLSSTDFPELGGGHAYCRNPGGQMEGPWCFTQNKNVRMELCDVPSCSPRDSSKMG
Background: Surface plasmon resonance follows binding to a sensor surface in real time, without labels.

For test [2], the target named is T2, recombinant mouse ROR2 (extracellular portion) (mouse, UniProt Q9Z138 34-403).
T2 construct: also called mROR2
T2 sequence (Q9Z138 other isoform, or with tags, fused parts or gaps limits assumed): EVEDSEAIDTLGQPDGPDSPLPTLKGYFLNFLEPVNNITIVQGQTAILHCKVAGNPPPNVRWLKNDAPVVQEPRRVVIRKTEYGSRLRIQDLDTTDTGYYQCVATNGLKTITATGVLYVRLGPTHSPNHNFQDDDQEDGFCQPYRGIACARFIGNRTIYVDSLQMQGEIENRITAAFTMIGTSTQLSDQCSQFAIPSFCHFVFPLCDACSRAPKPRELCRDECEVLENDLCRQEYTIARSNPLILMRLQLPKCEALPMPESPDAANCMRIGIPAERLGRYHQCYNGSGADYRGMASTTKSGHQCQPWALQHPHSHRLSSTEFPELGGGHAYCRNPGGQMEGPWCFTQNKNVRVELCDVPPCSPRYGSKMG
The test can be described thus: dot blot on nylon membrane, anti-human IgG-HRP.

Another test deals with recombinant ROR1 (Homo sapiens (Human), UniProt Q01973 30-406). Description: dot blot on nylon membrane, anti-human IgG-HRP.
Chain of recombinant ROR1 (Q01973 30-406 limits assumed): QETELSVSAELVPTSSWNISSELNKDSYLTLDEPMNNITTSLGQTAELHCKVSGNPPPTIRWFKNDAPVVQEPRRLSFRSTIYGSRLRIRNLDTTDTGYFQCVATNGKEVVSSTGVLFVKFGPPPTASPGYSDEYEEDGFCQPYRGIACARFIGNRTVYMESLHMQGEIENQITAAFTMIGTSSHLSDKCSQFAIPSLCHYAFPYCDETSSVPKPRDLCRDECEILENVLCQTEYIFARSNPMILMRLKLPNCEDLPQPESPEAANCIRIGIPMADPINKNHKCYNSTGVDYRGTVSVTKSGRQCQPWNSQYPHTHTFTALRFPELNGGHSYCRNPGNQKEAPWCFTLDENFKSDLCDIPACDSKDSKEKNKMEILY
The target of test [3] is T3, recombinant human ROR2 H349R (human, UniProt Q01974 34-403).
T3 construct: Human residue replaced with the mouse residue
T3 sequence (Q01974 34-403 H349R limits assumed): as the sequence (Q01974 34-403 limits assumed) above, with H316R counted along it
Description: dot blot on nylon membrane, anti-human IgG-HRP.

The target of test [4] is recombinant human ROR2 D354E (human, UniProt Q01974 34-403). The test can be described thus: dot blot on nylon membrane, anti-human IgG-HRP.
Chain of recombinant human ROR2 D354E (Q01974 34-403 D354E limits assumed): as the sequence (Q01974 34-403 limits assumed) above, with D321E counted along it
The target in test [5] is T1, human ROR2. The test can be described thus: SPR. Put shortly:
as §1
The source holds these as a separate data set.

For test [6], the target named is T1, human ROR2. Description: SPR. This is another data set of the same source.

Like-named read-outs stand apart in the source and are kept apart here.

Experimental findings from patent US20260209348A1 (University of California, published 2026) are described below.

As a reminder, the Kd is the free concentration of one partner at which half of the binding sites on the other are occupied at equilibrium, for simple one-to-one binding. Low readings indicate higher affinity, high ones lower affinity.

B1: h6E6-007 (antibody, human IgG1, V domains shown)
VH: EVQLVESGGGLVKPGGSLRLSCAASGFTFSGYGLSWVRQAPGKGLEWVSTISSGGGYTHYAPSVKGRFTISRDNAKNSLYLQMNSLRAEDTAVYYCARHPRDFSYAQDYWGQGTTVTVSS
VL: EIVMTQSPATLSVSPGERATLSCKASQDVGHYVAWYQQKPGQAPRLLIYWASTRATGIPARFSGSGSGTEFTLTISSLQSEDFAVYYCQQYNIYPWTFGQGTKVEIK
notes: human IgG1; also called clone 7
With B1, the Kd with human ROR2 [1] and in the test with human ROR2 [5] was 0.318 nM each time. The binding result (in test [2]; with recombinant ROR1; in test [3]; in test [4]) was “no binding” each time.

B2: grafted humanized 6E6: VH3-11*03 (IMGT) + VK1-8*01 (IMGT) (antibody, V domains shown)
VH: QVQLLESGGGLVKPGGSLRLSCAASGFTFSNYGMSWIRQAPGKGLEWVSYISSGGGYTNYADSVKGRFTISRDNAKNSLYLQMNSLRAEDTAVYYCARHPRDFSYAMDYWGQGTTVTVSS
VL: AIRMTQSPSSFSASTGDRVTITCRASQDVGHYLAWYQQKPGKAPKLLIYWASTLQSGVPSRFSGSGSGTDFTLTISCLQSEDFATYYCQQYNIYPWTFGQGTKVEIK
notes: expressed as IgG
As for B2, in the test with human ROR2 [6], the binding result is “no binding”.

B3: h6E6-040 (antibody, human IgG1, V domains shown)
VH: EVQLVESGGGLVKPGGSLRLSCAASGFTFSSYGHSWVRQAPGKGLEWVSTISSGGGYTHYAPSVKGRFTISRDNAKNSLYLQMNSLRAEDTAVYYCARHPRDFSYAHDYWGQGTTVTVSS
VL: EIVMTQSPATLSVSPGERATLSCRASQDVGHYVAWYQQKPGQAPRLLIYWASTRATGIPARFSGSGSGTEFTLTISSLQSEDFAVYYCQQYNIYPWTFGQGTKVEIK
notes: human IgG1; also called clone 40
Turning to B3, the Kd in the test with human ROR2 [1] and with human ROR2 [5] was 0.186 nM each time. The binding result (in test [2]; in the test with recombinant ROR1; in test [3]; in test [4]) was “no binding” each time.

B4: grafted humanized 6E6: VH3-21*01 (IMGT) + VK3-15*01 (IMGT) (antibody, V domains shown)
VH: EVQLVESGGGLVKPGGSLRLSCAASGFTFSNYGMNWVRQAPGKGLEWVSSISSGGGYTYYADSVKGRFTISRDNAKNSLYLQMNSLRAEDTAVYYCARHPRDFSYAMDYWGQGTTVTVSS
VL: EIVMTQSPATLSVSPGERATLSCRASQDVGHYLAWYQQKPGQAPRLLIYWASTRATGIPARFSGSGSGTEFTLTISSLQSEDFAVYYCQQYNIYPWTFGQGTKVEIK
notes: expressed as IgG
Take B4: the binding result in the test with human ROR2 [6] is “no binding”.

B5: grafted humanized 6E6: VH3-11*03 (IMGT) + VK3-15*01 (IMGT) (antibody, V domains shown)
VH: QVQLLESGGGLVKPGGSLRLSCAASGFTFSNYGMSWIRQAPGKGLEWVSYISSGGGYTNYADSVKGRFTISRDNAKNSLYLQMNSLRAEDTAVYYCARHPRDFSYAMDYWGQGTTVTVSS
VL: EIVMTQSPATLSVSPGERATLSCRASQDVGHYLAWYQQKPGQAPRLLIYWASTRATGIPARFSGSGSGTEFTLTISSLQSEDFAVYYCQQYNIYPWTFGQGTKVEIK
notes: expressed as IgG
On to B5, for which the Kd in the test with human ROR2 [6] stood at 64 nM.

B6: h6E6-055 (antibody, human IgG1, V domains shown)
VH: EVQLVESGGGLVKPGGSLRLSCAASGFTFSQYGHSWVRQAPGKGLEWVSTISSGGGYTHYAESVKGRFTISRDNAKNSLYLQMNSLRAEDTAVYYCARHPRDFSYAQDYWGQGTTVTVSS
VL: EIVMTQSPATLSVSPGERATLSCKASQDVGHYLAWYQQKPGQAPRLLIYWASTRATGIPARFSGSGSGTEFTLTISSLQSEDFAVYYCQQYNIYPWTFGQGTKVEIK
notes: human IgG1; also called clone 55
For the molecule B6, the Kd in the test with human ROR2 [1] and in the test with human ROR2 [5] was 0.261 nM in each case. For the same molecule, the binding result (in test [2]; with recombinant ROR1; in test [3]; in test [4]) was “no binding” each time.

B7: grafted humanized 6E6: VH3-21*01 (extended) + VK1-12*01 (extended) (antibody, V domains shown)
VH: EVQLVESGGGLVKPGGSLRLSCAASGFTFSNYGMSWVRQAPGKGLEWVSTISSGGGYTHYVDSVKGRFTISRDNAKNSLYLQMNSLRAEDTAVYYCARHPRDFSYAMDYWGQGTTVTVSS
VL: DIQMTQSPSSVSASVGDRVTITCKASQDVGHYVAWYQQKPGKAPKLLIYWASTRHTGVPSRFSGSGSGTDFTLTISSLQPEDFATYYCQQYNIYPWTFGQGTKVEIK
notes: expressed as IgG
In turn, B7 registered a Kd in the test with human ROR2 [6] of 0.67 nM.

B8: h6E6-056 (antibody, human IgG1, V domains shown)
VH: EVQLVESGGGLVKPGGSLRLSCAASGFTFSKYGTSWVRQAPGKGLEWVSTISSGGGYTHYAPSVKGRFTISRDNAKNSLYLQMNSLRAEDTAVYYCARHPRDFSYAQDYWGQGTTVTVSS
VL: EIVMTQSPATLSVSPGERATLSCRASQDVGHYVAWYQQKPGQAPRLLIYWASTRATGIPARFSGSGSGTEFTLTISSLQSEDFAVYYCQQYNIYPWTFGQGTKVEIK
notes: human IgG1; also called clone 56
B8: the equilibrium dissociation constant (Kd) with human ROR2 [1] and with human ROR2 [5] was 0.024 nM each time. The binding result (in test [2]; with recombinant ROR1; in test [3]; in test [4]) was “no binding” throughout.

B9: h6E6-029 (antibody, human IgG1, V domains shown)
VH: EVQLVESGGGLVKPGGSLRLSCAASGFTFSHYGVSWVRQAPGKGLEWVSTISSGGGYTHYAQSVKGRFTISRDNAKNSLYLQMNSLRAEDTAVYYCARHPRDFSYAQDYWGQGTTVTVSS
VL: EIVMTQSPATLSVSPGERATLSCKASQDVGHYVAWYQQKPGQAPRLLIYWASTRHTGIPARFSGSGSGTEFTLTISSLQSEDFAVYYCQQYNIYPWTFGQGTKVEIK
notes: human IgG1; also called clone 29
In the case of B9, the Kd with human ROR2 [1] and with human ROR2 [5] was 0.079 nM throughout. Moreover, the binding result (in test [2]; with recombinant ROR1; in test [3]; in test [4]) was “no binding” throughout.

B10: grafted humanized 6E6: VH3-11*03 (extended) + VK3-15*01 (IMGT) (antibody, V domains shown)
VH: QVQLLESGGGLVKPGGSLRLSCAASGFTFSNYGMSWIRQAPGKGLEWVSTISSGGGYTHYVDSVKGRFTISRDNAKNSLYLQMNSLRAEDTAVYYCARHPRDFSYAMDYWGQGTTVTVSS
VL: EIVMTQSPATLSVSPGERATLSCRASQDVGHYLAWYQQKPGQAPRLLIYWASTRATGIPARFSGSGSGTEFTLTISSLQSEDFAVYYCQQYNIYPWTFGQGTKVEIK
notes: expressed as IgG
Take B10: the Kd with human ROR2 [6] turned out to be 1.1 nM.

B11: grafted humanized 6E6: VH3-21*01 (extended) + VK3-15*01 (IMGT) (antibody, V domains shown)
VH: EVQLVESGGGLVKPGGSLRLSCAASGFTFSNYGMSWVRQAPGKGLEWVSTISSGGGYTHYVDSVKGRFTISRDNAKNSLYLQMNSLRAEDTAVYYCARHPRDFSYAMDYWGQGTTVTVSS
VL: EIVMTQSPATLSVSPGERATLSCRASQDVGHYLAWYQQKPGQAPRLLIYWASTRATGIPARFSGSGSGTEFTLTISSLQSEDFAVYYCQQYNIYPWTFGQGTKVEIK
notes: expressed as IgG
Consider B11, for which, in the test with human ROR2 [6], the dissociation constant Kd was 0.58 nM.

B12: grafted humanized 6E6: VH3-21*01 (extended) + VK1-8*01 (IMGT) (antibody, V domains shown)
VH: EVQLVESGGGLVKPGGSLRLSCAASGFTFSNYGMSWVRQAPGKGLEWVSTISSGGGYTHYVDSVKGRFTISRDNAKNSLYLQMNSLRAEDTAVYYCARHPRDFSYAMDYWGQGTTVTVSS
VL: AIRMTQSPSSFSASTGDRVTITCRASQDVGHYLAWYQQKPGKAPKLLIYWASTLQSGVPSRFSGSGSGTDFTLTISCLQSEDFATYYCQQYNIYPWTFGQGTKVEIK
notes: expressed as IgG
Take B12: in the test with human ROR2 [6], the Kd is 10 nM.
